The target of assay [1] is HLA-B*15:01. Kind of assay: IEDB peptide-MHC binding, purified MHC/competitive/radioactivity; filed as Kd, often an IC50 or EC50 that approximates it; ≥ and ≤ were set here for values at or beyond the usual limits of such assays.
For the next assay, the target named is HLA-A*01:01. Described as above.
The next assay deals with HLA-A*23:01. Described as above.
The target in another assay is HLA-A*24:02. Described as above.
For another assay, the target named is HLA-A*26:01. The description is as above.
Another assay has as its target HLA-A*29:02. Described as above.
In another assay the target is HLA-A*30:02. The description is as above.
Another assay deals with HLA-B*07:02. The description is as above.
The next assay deals with HLA-B*51:01. The assay is described as above.
The next assay addresses HLA-A*69:01. Put plainly: IEDB peptide-MHC binding, purified MHC/direct/fluorescence; filed as Kd, often an IC50 or EC50 that approximates it; ≥ and ≤ were set here for values at or beyond the usual limits of such assays. The conditions noted are these: source organism: Haemophilus influenzae.
In assay [2] the target is HLA-B*15:01. The description is as above. The note with it: source organism: Haemophilus influenzae.
Another assay concerns the target HLA-B*40:01. The assay is described as above. The conditions noted are these: source organism: Haemophilus influenzae.
A further assay addresses HLA-B*46:01. Kind of assay: IEDB peptide-MHC binding, purified MHC/competitive/fluorescence; filed as Kd, often an IC50 or EC50 that approximates it; ≥ and ≤ were set here for values at or beyond the usual limits of such assays. The conditions noted are these: source organism: Haemophilus influenzae R3021.
The next assay addresses HLA-A*02:02. Put plainly: IEDB peptide-MHC binding, purified MHC/competitive/radioactivity; filed as Kd, often an IC50 or EC50 that approximates it; ≥ and ≤ were set here for values at or beyond the usual limits of such assays. The note with it: source organism: Vaccinia virus WR.
The target of the next assay is HLA-A*02:03. Described as above. The conditions noted are these: source organism: Vaccinia virus WR.
The target of the next assay is HLA-A*02:06. The description is as above. The note with it: source organism: Vaccinia virus WR.
For another assay, the target named is HLA-A*30:01. The description is as above. The note with it: source organism: Vaccinia virus WR.
A further assay concerns the target HLA-B*08:01. Described as above. The conditions noted are these: source organism: Vaccinia virus WR.
[3] abbreviates: source organism: Vaccinia virus WR.
Where [4] appears, read: source organism: SARS coronavirus Tor2.
The mark [5] stands for this setting: source organism: Dengue virus 4 Philippines/H241/1956.
The mark [6] stands for this setting: source organism: Mammarenavirus lassaense.
Where [7] appears, read: source organism: Dengue virus 2 Jamaica/1409/1983.
The mark [8] stands for this setting: source organism: Mammarenavirus choriomeningitidis.

Regarding LIKVLVEHG, the Kd – broadly, a measure of binding affinity in units of concentration – with HLA-B*15:01 [1] (setting [3]) stood at 621 nM.
In the case of AYSNRNRFL, the Kd with HLA-A*01:01 (setting [4]) is not below 78100 nM; with HLA-A*23:01 (setting [4]), 658 nM; in the assay with HLA-A*24:02 (setting [4]), 92.2 nM; with HLA-A*26:01 (setting [4]), not below 77900 nM; with HLA-A*29:02 (setting [4]) it was 6640 nM; with HLA-A*30:02 (setting [4]) it was not below 54700 nM.
In the case of GPMVAGGLLL, the Kd with HLA-B*07:02 (setting [5]) was 36.3 nM; in the assay with HLA-B*51:01 (setting [5]), not below 69600 nM.
On to KLNQLSRKEF, for which the Kd in the assay with HLA-B*15:01 [1] (source organism: Dengue virus 3 Martinique/1243/1999) amounted to 70.6 nM.
Take HTSSMRGVY: the Kd with HLA-A*01:01 (setting [4]) was 85.2 nM; with HLA-A*23:01 (setting [4]), not below 77800 nM; with HLA-A*24:02 (setting [4]) it was not below 77600 nM; with HLA-A*26:01 (setting [4]), 4.78 nM; with HLA-A*29:02 (setting [4]), 8.21 nM; with HLA-A*30:02 (setting [4]) it was 0.131 nM.
Regarding LFARTRSMW, the Kd was not below 78100 nM with HLA-A*01:01 (setting [4]); 488 nM with HLA-A*23:01 (setting [4]); 146 nM with HLA-A*24:02 (setting [4]); not below 77900 nM with HLA-A*26:01 (setting [4]); 10200 nM in the assay with HLA-A*29:02 (setting [4]); not below 83300 nM in the assay with HLA-A*30:02 (setting [4]).
Regarding SPAAAQKATL, the Kd with HLA-B*07:02 (setting [5]) amounted to 3.95 nM.
For the sequence YICILINHG, in the assay with HLA-B*15:01 [1] (setting [3]), the Kd was 813 nM.
Turning to GSIIQFPNTY, the Kd with HLA-A*01:01 (setting [4]) is 1050 nM; in the assay with HLA-A*23:01 (setting [4]), not below 70000 nM; with HLA-A*24:02 (setting [4]), not below 70300 nM; with HLA-A*26:01 (setting [4]) it was 1880 nM; with HLA-A*29:02 (setting [4]), 462 nM; in the assay with HLA-A*30:02 (setting [4]), 545 nM.
Turning to ESDGKPQKV, the Kd in the assay with HLA-A*01:01 (setting [6]) is 188 nM; with HLA-A*23:01 (setting [6]) it was not below 77700 nM; in the assay with HLA-A*24:02 (setting [6]), not below 77500 nM; with HLA-A*26:01 (setting [6]), not below 77900 nM; in the assay with HLA-A*29:02 (setting [6]) it was not below 78900 nM; with HLA-A*30:02 (setting [6]), not below 76900 nM.
On to LLSPVRVPNY, for which the Kd in the assay with HLA-A*01:01 (setting [7]) came to 15100 nM; in the assay with HLA-A*30:02 (setting [7]), 306 nM; with HLA-B*15:01 [1] (setting [7]), 2.99 nM.
For EGFMRKQKY, the Kd in the assay with HLA-A*01:01 (setting [8]) was not below 49600 nM; with HLA-A*23:01 (setting [8]), not below 56100 nM; with HLA-A*24:02 (setting [8]), not below 77500 nM; in the assay with HLA-A*26:01 (setting [8]) it was not below 77900 nM; with HLA-A*29:02 (setting [8]) it was not below 78900 nM; in the assay with HLA-A*30:02 (setting [8]) it was not below 53500 nM.
As to FSAVGNICY, the Kd in the assay with HLA-A*01:01 (setting [4]) was 0.34 nM; with HLA-A*23:01 (setting [4]), not below 77800 nM; with HLA-A*24:02 (setting [4]) it was not below 51600 nM; with HLA-A*26:01 (setting [4]) it was 409 nM; in the assay with HLA-A*29:02 (setting [4]), 7.97 nM; with HLA-A*30:02 (setting [4]), 28.5 nM.
With EQFPNATAF, the Kd is 9840 nM in the assay with HLA-A*69:01, 42.3 nM in the assay with HLA-B*15:01 [2], 2970 nM with HLA-B*40:01 and 2370 nM with HLA-B*46:01.
Turning to QPHWIAASII, the values for the Kd with HLA-B*07:02 (setting [7]) and with HLA-B*51:01 (setting [7]) were 47.5 nM and 468 nM, respectively.
With KAAKRISHG, the Kd with HLA-B*15:01 [1] (setting [3]) turned out to be 7690 nM.
As for LMRRGDLPVW, the Kd with HLA-B*15:01 [1] (setting [7]) turned out to be 159 nM.
Consider SVIFYFISI, for which the Kd in the assay with HLA-A*02:02 worked out at 155 nM; with HLA-A*02:03, 75 nM; with HLA-A*02:06, 0.169 nM; in the assay with HLA-B*15:01 [1] (setting [3]), 335 nM.
Consider FFTYLCGFI, for which the Kd was not below 43100 nM with HLA-A*01:01 (setting [4]); 13700 nM with HLA-A*23:01 (setting [4]); 18800 nM in the assay with HLA-A*24:02 (setting [4]); not below 77900 nM with HLA-A*26:01 (setting [4]); 822 nM in the assay with HLA-A*29:02 (setting [4]); not below 78900 nM with HLA-A*30:02 (setting [4]).
In the case of RIRNKFMFI, the Kd in the assay with HLA-A*30:01 came to 0.0693 nM; with HLA-B*08:01, 1.58 nM; with HLA-B*15:01 [1] (setting [3]), 766 nM.
Consider KQEHETSWHY, for which the Kd with HLA-A*30:02 (setting [7]) is not below 69700 nM; with HLA-B*15:01 [1] (setting [7]) it was 125 nM.
Regarding ASITAFKSM, in the assay with HLA-B*15:01 [1] (setting [3]), the Kd was 25 nM.
Turning to FLYSFFLCI, the Kd worked out at 5810 nM with HLA-B*08:01 and 1170 nM in the assay with HLA-B*15:01 [1] (setting [3]).

The values are drawn from the Immune Epitope Database (IEDB).
